For six proteins, Km, kcat/Km and kcat results are on record in paper PMC11509930, “Improving Hydrolytic Activity and Enantioselectivity of Epoxide Hydrolase from Phanerochaete chrysosporium by Directed Evolution” (Molecules, 2024).

Substrate in data set [1]: c1ccc([C@H]2CO2)cc1
Nature of the data set: purified protein. It is filed as biochemical, Phanerodontia chrysosporium. Conditions: 10-80 mM SO, 37 °C, buffer pH 8.0.

Substrate in data set [2]: c1ccc([C@@H]2CO2)cc1
Nature of the data set: purified protein. It is filed as biochemical, Phanerodontia chrysosporium. Conditions: 10-80 mM SO, 37 °C, buffer pH 8.0.

B1: PchEHA (epoxide hydrolase) (Phanerodontia chrysosporium; G14A/K291R/Y163H) (protein)
chain: MDASLFKDFKTSRAFNYHYFYSPAKGPRPTLFFLHGNPSVATDWAQIVPHFTSRGYGVLAPDMLGYGDTDKPTDPALYVSSGMCRNLVDLLDHEGLEKVIAIGHDWGCLSVSRLASYYPERVIAYAFLAASFIGPIPPIPFDAFLEYIKQQVGYELYGYWKFHSEPGLDQFVRDHLDTFLSILWPSDPAVWKTRLAPTGALKQSALEGWTAPLAPYITEEFKKHHVEVFNKNGFEAPACYYRIMTSGLQAEDDKQILPERAVPPKDAPVFFGAANKDYICIPALAYATFKRDEWKDHKITIKEYDADHWLILSHADQVSRDLEAWIEGFASGGQ
notes: catalytic triad D105/H308/D277
Regarding B1, in “purified protein [1]”, the Km (usually the concentration of substrate that gives half-maximal velocity) worked out at 57.82 ± 7.75 mM and the specificity constant (kcat/Km) (usually the turnover number divided by the Michaelis constant) was 36000 M⁻¹ s⁻¹. In the data set “purified protein [2]”, the Km came to 20.36 ± 1.34 mM; the kcat (as a rule, the number of substrate molecules converted per active site and unit of time at saturation) is 2480 ± 52.4 s⁻¹; the kcat/Km came to 122000 M⁻¹ s⁻¹.

B2: PchEHA (epoxide hydrolase) (Phanerodontia chrysosporium; C108S/G14A/K291R) (protein)
chain: MDASLFKDFKTSRAFNYHYFYSPAKGPRPTLFFLHGNPSVATDWAQIVPHFTSRGYGVLAPDMLGYGDTDKPTDPALYVSSGMCRNLVDLLDHEGLEKVIAIGHDWGSLSVSRLASYYPERVIAYAFLAASFIGPIPPIPFDAFLEYIKQQVGYELYGYWKFYSEPGLDQFVRDHLDTFLSILWPSDPAVWKTRLAPTGALKQSALEGWTAPLAPYITEEFKKHHVEVFNKNGFEAPACYYRIMTSGLQAEDDKQILPERAVPPKDAPVFFGAANKDYICIPALAYATFKRDEWKDHKITIKEYDADHWLILSHADQVSRDLEAWIEGFASGGQ
notes: as for B1
Turning to B2, in “purified protein [1]”, the Michaelis-Menten constant (Km) stood at 51.04 ± 2.04 mM and the kcat/Km was determined as 19700 M⁻¹ s⁻¹. Also, in the data set “purified protein [2]”, the Michaelis constant (Km) was 21.71 ± 2.6 mM, the kcat was determined as 3020 ± 120 s⁻¹ and the kcat/Km was found to be 139000 M⁻¹ s⁻¹.

B3: PchEHA (epoxide hydrolase) (Phanerodontia chrysosporium) (protein)
chain: MDASLFKDFKTSRGFNYHYFYSPAKGPRPTLFFLHGNPSVATDWAQIVPHFTSRGYGVLAPDMLGYGDTDKPTDPALYVSSGMCRNLVDLLDHEGLEKVIAIGHDWGCLSVSRLASYYPERVIAYAFLAASFIGPIPPIPFDAFLEYIKQQVGYELYGYWKFYSEPGLDQFVRDHLDTFLSILWPSDPAVWKTRLAPTGALKQSALEGWTAPLAPYITEEFKKHHVEVFNKNGFEAPACYYRIMTSGLQAEDDKQILPERAVPPKDAPVFFGAANKDYICIPALAYATFKKDEWKDHKITIKEYDADHWLILSHADQVSRDLEAWIEGFASGGQ
notes: as for B1
With B3, in the data set “purified protein [1]”, the Km is reported as 39.23 ± 4.49 mM and the kcat/Km was determined as 34400 M⁻¹ s⁻¹. Besides, in the data set “purified protein [2]”, the Km came out at 25.75 ± 2.08 mM, the kcat stood at 1740 ± 50.8 s⁻¹ and the kcat/Km is 67500 M⁻¹ s⁻¹.

B4: PchEHA (epoxide hydrolase) (Phanerodontia chrysosporium; E251G/Y163H) (protein)
chain: MDASLFKDFKTSRGFNYHYFYSPAKGPRPTLFFLHGNPSVATDWAQIVPHFTSRGYGVLAPDMLGYGDTDKPTDPALYVSSGMCRNLVDLLDHEGLEKVIAIGHDWGCLSVSRLASYYPERVIAYAFLAASFIGPIPPIPFDAFLEYIKQQVGYELYGYWKFHSEPGLDQFVRDHLDTFLSILWPSDPAVWKTRLAPTGALKQSALEGWTAPLAPYITEEFKKHHVEVFNKNGFEAPACYYRIMTSGLQAGDDKQILPERAVPPKDAPVFFGAANKDYICIPALAYATFKKDEWKDHKITIKEYDADHWLILSHADQVSRDLEAWIEGFASGGQ
notes: as for B1
Turning to B4, in “purified protein [1]”, the Km is on record as 30.39 ± 2.99 mM and the kcat/Km worked out at 32500 M⁻¹ s⁻¹. Also, in the data set “purified protein [2]”, the Km was 14.16 ± 1.19 mM, the kcat worked out at 2350 ± 52.3 s⁻¹ and the kcat/Km was found to be 166000 M⁻¹ s⁻¹.

B5: PchEHA (epoxide hydrolase) (Phanerodontia chrysosporium; E251G/G14A/K291R) (protein)
chain: MDASLFKDFKTSRAFNYHYFYSPAKGPRPTLFFLHGNPSVATDWAQIVPHFTSRGYGVLAPDMLGYGDTDKPTDPALYVSSGMCRNLVDLLDHEGLEKVIAIGHDWGCLSVSRLASYYPERVIAYAFLAASFIGPIPPIPFDAFLEYIKQQVGYELYGYWKFYSEPGLDQFVRDHLDTFLSILWPSDPAVWKTRLAPTGALKQSALEGWTAPLAPYITEEFKKHHVEVFNKNGFEAPACYYRIMTSGLQAGDDKQILPERAVPPKDAPVFFGAANKDYICIPALAYATFKRDEWKDHKITIKEYDADHWLILSHADQVSRDLEAWIEGFASGGQ
notes: as for B1
Turning to B5, in the data set “purified protein [1]”, the Km is recorded as 41.96 ± 2.07 mM and the kcat/Km came out at 38300 M⁻¹ s⁻¹. For the same protein, in “purified protein [2]”, the Km stood at 22.6 ± 1.75 mM, the kcat is 2250 ± 59 s⁻¹ and the kcat/Km turned out to be 99600 M⁻¹ s⁻¹.

B6: PchEHA (epoxide hydrolase) (Phanerodontia chrysosporium; A24T/E251G) (protein)
chain: MDASLFKDFKTSRGFNYHYFYSPTKGPRPTLFFLHGNPSVATDWAQIVPHFTSRGYGVLAPDMLGYGDTDKPTDPALYVSSGMCRNLVDLLDHEGLEKVIAIGHDWGCLSVSRLASYYPERVIAYAFLAASFIGPIPPIPFDAFLEYIKQQVGYELYGYWKFYSEPGLDQFVRDHLDTFLSILWPSDPAVWKTRLAPTGALKQSALEGWTAPLAPYITEEFKKHHVEVFNKNGFEAPACYYRIMTSGLQAGDDKQILPERAVPPKDAPVFFGAANKDYICIPALAYATFKKDEWKDHKITIKEYDADHWLILSHADQVSRDLEAWIEGFASGGQ
notes: as for B1
With B6, in “purified protein [1]”, the Km is listed as 43.98 ± 3.94 mM and the kcat/Km is 25900 M⁻¹ s⁻¹. In the data set “purified protein [2]”, the Km came to 26.28 ± 3.79 mM, the kcat amounted to 1660 ± 87.3 s⁻¹ and the kcat/Km came out at 63100 M⁻¹ s⁻¹.
